Laboratory results as given in IntAct's records for PubMed 25910212.

B1: Ribose-phosphate pyrophosphokinase 1 (Homo sapiens), P60891 (parent)
chain: MPNIKIFSGSSHQDLSQKIADRLGLELGKVVTKKFSNQETCVEIGESVRGEDVYIVQSGCGEINDNLMELLIMINACKIASASRVTAVIPCFPYARQDKKDKSRAPISAKLVANMLSVAGADHIITMDLHASQIQGFFDIPVDNLYAEPAVLKWIRENISEWRNCTIVSPDAGGAKRVTSIADRLNVDFALIHKERKKANEVDRMVLVGDVKDRVAILVDDMADTCGTICHAADKLLSAGATRVYAILTHGIFSGPAISRINNACFEAVVVTNTIPQEDKMKHCSKIQVIDISMILAEAIRRTHNGESVSYLFSHVPL
partner: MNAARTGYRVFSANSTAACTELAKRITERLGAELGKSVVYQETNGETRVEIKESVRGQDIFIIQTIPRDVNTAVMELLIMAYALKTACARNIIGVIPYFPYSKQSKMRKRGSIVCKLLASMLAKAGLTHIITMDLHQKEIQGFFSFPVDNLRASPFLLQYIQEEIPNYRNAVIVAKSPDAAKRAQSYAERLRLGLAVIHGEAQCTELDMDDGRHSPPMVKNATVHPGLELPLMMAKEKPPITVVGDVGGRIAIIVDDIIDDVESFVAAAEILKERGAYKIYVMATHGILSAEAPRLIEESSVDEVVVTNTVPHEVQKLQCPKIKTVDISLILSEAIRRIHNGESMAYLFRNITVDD
B2: Hypoxanthine-guanine phosphoribosyltransferase (Homo sapiens), P00492 (parent)
chain: MATRSPGVVISDDEPGYDLDLFCIPNHYAEDLERVFIPHGLIMDRTERLARDVMKEMGGHHIVALCVLKGGYKFFADLLDYIKALNRNSDRSIPMTVDFIRLKSYCNDQSTGDIKVIGGDDLSTLTGKNVLIVEDIIDTGKTMQTLLSLVRQYNPKMVKVASLLVKRTPRSVGYKPDFVGFEIPDKFVVGYALDYNEYFRDLNHVCVISETGKAKYKA
partner: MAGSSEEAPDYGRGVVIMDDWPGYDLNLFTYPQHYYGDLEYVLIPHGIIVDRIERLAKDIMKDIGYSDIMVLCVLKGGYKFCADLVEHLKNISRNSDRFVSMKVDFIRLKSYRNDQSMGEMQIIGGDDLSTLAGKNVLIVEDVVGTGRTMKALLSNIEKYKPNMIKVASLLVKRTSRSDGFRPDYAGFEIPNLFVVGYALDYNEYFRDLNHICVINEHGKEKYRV
B3: PiggyBac transposable element-derived protein 1 (Homo sapiens), Q96JS3 (parent)
chain: MYEALPGPAPENEDGLVKVKEEDPTWEQVCNSQEGSSHTQEICRLRFRHFCYQEAHGPQEALAQLRELCHQWLRPEMHTKEQIMELLVLEQFLTILPKELQPCVKTYPLESGEEAVTVLENLETGSGDTGQQASVYIQGQDMHPMVAEYQGVSLECQSLQLLPGITTLKCEPPQRPQGNPQEVSGPVPHGSAHLQEKNPRDKAVVPVFNPVRSQTLVKTEEETAQAVAAEKWSHLSLTRRNLCGNSAQETVMSLSPMTEEIVTKDRLFKAKQETSEEMEQSGEASGKPNRECAPQIPCSTPIATERTVAHLNTLKDRHPGDLWARMHISSLEYAAGDITRKGRKKDKARVSELLQGLSFSGDSDVEKDNEPEIQPAQKKLKVSCFPEKSWTKRDIKPNFPSWSALDSGLLNLKSEKLNPVELFELFFDDETFNLIVNETNNYASQKNVSLEVTVQEMRCVFGVLLLSGFMRHPRREMYWEVSDTDQNLVRDAIRRDRFELIFSNLHFADNGHLDQKDKFTKLRPLIKQMNKNFLLYAPLEEYYCFDKSMCECFDSDQFLNGKPIRIGYKIWCGTTTQGYLVWFEPYQEESTMKVDEDPDLGLGGNLVMNFADVLLERGQYPYHLCFDSFFTSVKLLSALKKKGVRATGTIRENRTEKCPLMNVEHMKKMKRGYFDFRIEENNEIILCRWYGDGIISLCSNAVGIEPVNEVSCCDADNEEIPQISQPSIVKVYDECKEGVAKMDQIISKYRVRIRSKKWYSILVSYMIDVAMNNAWQLHRACNPGASLDPLDFRRFVAHFYLEHNAHLSD

Variants of: B1
Settings: with kpra_human PRPSAP1, Q14558

Row | Variant | effect of a mutation on the interaction
1 | MPNIKIFSGSSHQDLSQKIADRLGLELGKVVTKKFSNQETCVEIGESVRGEDVYIVQSGCGEINDNLMELLIMINACKIASASRVTAVIPCFPYARQDKKDKSRAPISAKLVANMLSVAGADHIITMDLHASQIQGFFDIPVDNLYAEPAVLKWIRENISEWRNCTIVSPDAGGAKRVTSIAHRLNVDFALIHKERKKANEVDRMVLVGDVKDRVAILVDDMADTCGTICHAADKLLSAGATRVYAILTHGIFSGPAISRINNACFEAVVVTNTIPQEDKMKHCSKIQVIDISMILAEAIRRTHNGESVSYLFSHVPL [D183H] | with no effect

Variants of: B2
Settings: with prdc1_human PRTFDC1, Q9NRG1

Row | Variant | effect of a mutation on the interaction
2 | MATRSPGVVISDDEPGYDLDLFCIPNHYAEDLERVFIPHGLIMDRTERLARDVMKEMGGHHIVALCVLKGGYKFFADLLDYIKALNRNSDRSIPMTVDFIRLKSYCNDQSTGDIKVIGGDDLSTLTGKNVLIVEDIIDTGKTMQTLLSLVRQYNPKMVKVASLLVKRTPRSVGYKPDFVGFEIPDKFVVGYALHYNEYFRDLNHVCVISETGKAKYKA [D194H] | disrupting interaction strength

Variants of: B3
Settings: with NR4A1, P22736-2
NR4A1, P22736-2, sequence (P22736 other isoform, or with tags, fused parts or gaps): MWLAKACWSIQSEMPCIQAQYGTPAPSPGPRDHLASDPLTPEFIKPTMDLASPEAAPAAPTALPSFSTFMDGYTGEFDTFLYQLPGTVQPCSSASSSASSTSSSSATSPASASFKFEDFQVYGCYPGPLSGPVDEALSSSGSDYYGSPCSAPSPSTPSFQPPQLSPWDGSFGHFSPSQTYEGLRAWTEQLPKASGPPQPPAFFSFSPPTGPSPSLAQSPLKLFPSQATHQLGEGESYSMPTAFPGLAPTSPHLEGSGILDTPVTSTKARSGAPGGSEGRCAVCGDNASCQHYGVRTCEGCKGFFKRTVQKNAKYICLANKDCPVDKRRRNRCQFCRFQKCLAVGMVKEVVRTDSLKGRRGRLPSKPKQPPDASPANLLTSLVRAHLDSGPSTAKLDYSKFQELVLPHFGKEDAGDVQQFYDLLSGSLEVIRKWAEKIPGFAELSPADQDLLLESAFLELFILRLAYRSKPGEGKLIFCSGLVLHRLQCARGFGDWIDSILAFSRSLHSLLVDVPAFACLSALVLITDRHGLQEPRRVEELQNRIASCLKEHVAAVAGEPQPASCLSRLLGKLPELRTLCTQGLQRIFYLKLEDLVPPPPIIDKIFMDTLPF

Row | Variant | effect of a mutation on the interaction
3 | Q248E | with no effect
4 | P256L | with no effect

Variants of: B3
Settings: with znf24_human ZNF24, P17028
znf24_human ZNF24, P17028, sequence (P17028 whole entry): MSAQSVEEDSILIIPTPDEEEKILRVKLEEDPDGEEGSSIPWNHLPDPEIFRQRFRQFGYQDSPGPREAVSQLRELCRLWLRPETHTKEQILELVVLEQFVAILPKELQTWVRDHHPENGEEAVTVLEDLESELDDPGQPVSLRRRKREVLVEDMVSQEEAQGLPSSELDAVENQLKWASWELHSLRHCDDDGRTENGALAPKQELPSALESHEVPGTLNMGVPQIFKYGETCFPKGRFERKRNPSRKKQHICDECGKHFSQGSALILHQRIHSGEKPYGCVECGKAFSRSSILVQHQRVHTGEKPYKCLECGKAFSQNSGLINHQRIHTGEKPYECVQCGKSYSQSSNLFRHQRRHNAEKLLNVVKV

Row | Variant | effect of a mutation on the interaction
5 | Q248E | with no effect
6 | P256L | with no effect

Variants of: B3
Settings: with zn496_human ZNF496, Q96IT1
zn496_human ZNF496, Q96IT1, sequence (Q96IT1 whole entry): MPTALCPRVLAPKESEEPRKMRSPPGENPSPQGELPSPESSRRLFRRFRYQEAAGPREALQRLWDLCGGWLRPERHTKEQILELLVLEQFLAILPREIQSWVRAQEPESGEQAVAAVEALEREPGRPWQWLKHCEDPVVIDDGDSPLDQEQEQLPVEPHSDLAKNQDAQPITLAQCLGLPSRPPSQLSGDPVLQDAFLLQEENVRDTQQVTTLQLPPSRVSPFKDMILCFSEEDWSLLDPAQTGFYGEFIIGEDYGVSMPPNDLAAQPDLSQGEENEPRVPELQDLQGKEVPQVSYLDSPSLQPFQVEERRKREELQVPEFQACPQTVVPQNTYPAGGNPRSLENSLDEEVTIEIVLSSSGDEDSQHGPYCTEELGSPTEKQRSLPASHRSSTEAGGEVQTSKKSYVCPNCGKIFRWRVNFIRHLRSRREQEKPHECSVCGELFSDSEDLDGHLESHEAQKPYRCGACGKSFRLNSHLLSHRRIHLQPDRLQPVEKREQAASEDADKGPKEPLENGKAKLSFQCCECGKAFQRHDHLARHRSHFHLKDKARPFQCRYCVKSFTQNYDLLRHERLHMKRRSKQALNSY

Row | Variant | effect of a mutation on the interaction
7 | Q248E | with no effect
8 | P256L | with no effect

Variants of: B3
Settings: with zsc22_human ZSCAN22, P10073
zsc22_human ZSCAN22, P10073, sequence (P10073 whole entry): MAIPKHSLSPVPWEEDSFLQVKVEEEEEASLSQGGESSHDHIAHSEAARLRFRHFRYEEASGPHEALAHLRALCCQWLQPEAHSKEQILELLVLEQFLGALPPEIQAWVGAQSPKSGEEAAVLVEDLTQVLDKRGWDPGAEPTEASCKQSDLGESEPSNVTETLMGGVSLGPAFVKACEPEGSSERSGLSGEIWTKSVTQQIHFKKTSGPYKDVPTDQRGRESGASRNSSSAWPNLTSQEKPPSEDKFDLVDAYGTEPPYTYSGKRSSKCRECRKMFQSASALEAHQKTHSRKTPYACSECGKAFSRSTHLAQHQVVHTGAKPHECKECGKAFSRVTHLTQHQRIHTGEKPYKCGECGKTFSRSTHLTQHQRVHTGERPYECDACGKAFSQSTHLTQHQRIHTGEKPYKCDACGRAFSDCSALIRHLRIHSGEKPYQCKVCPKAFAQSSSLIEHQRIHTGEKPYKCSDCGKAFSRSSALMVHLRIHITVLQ

Row | Variant | effect of a mutation on the interaction
9 | Q248E | with no effect
10 | P256L | with no effect

Variants of: B3
Settings: with meox2_human MEOX2, P50222
meox2_human MEOX2, P50222, sequence (P50222 whole entry): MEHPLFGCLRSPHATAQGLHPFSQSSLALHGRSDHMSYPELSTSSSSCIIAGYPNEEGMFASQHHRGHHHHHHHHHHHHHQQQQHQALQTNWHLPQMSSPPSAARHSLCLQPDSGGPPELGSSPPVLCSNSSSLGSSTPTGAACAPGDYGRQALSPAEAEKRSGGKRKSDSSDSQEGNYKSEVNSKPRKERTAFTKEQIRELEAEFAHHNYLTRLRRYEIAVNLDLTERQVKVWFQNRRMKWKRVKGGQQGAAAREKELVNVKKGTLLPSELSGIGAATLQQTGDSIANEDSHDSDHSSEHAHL

Row | Variant | effect of a mutation on the interaction
11 | Q248E | with no effect
12 | P256L | with no effect
